Earlier results, collected in patent publication US20230023414A1, “METHODS AND DEVICES FOR TREATING A DISEASE WITH BIOTHERAPEUTICS” (PROGENITY, INC., priority 2018, published 2023).

Settings: SC administration

Row | Molecule | Approved Dosing Info: Bio Avail [%] | Baseline dose: Bioavail. (dose info for non-approved agents from clinical trial information) [%]
1 | pegfilgrastim (protein, UniProt P09919 31-207, looked up, N-terminal Met, 20 kDa PEG) Granulocyte …: TPLGPASSLPQSFLLKCLEQVRKIQGDGAALQEKLVSECATYKLCHPEELVLLGHSLGIPWAPLSSCPSQALQLAGCLSQLHSGLFLYQGLLQALEGISPELGPTLDTLQLDVADFATTIWQQMEELGMAPALQPTQGAMPAFASAFQRRAGGVLVASHLQSFLEVSYRVLRHLAQP | 70 | –
2 | emicizumab (antibody, chains of the INN, looked up, V domains shown) VH: QVQLVQSGSELKKPGASVKVSCKASGYTFTDNNMDWVRQAPGQGLEWMGDINTRSGGSIYNEEFQDRVIMTVDKSTDTAYMELSSLRSEDTATYHCARRKSYGYYLDEWGEGTLVTVSS VL: DIQMTQSPSSLSASVGDRVTITCKASRNIERQLAWYQQKPGQAPELLIYQASRKESGVPDRFSGSRYGTDFTLTISSLQPEDIATYYCQQYSDPPLTFGGGTKVEIK VH2: QVQLVESGGGLVQPGGSLRLSCAASGFTFSYYDIQWVRQAPGKGLEWVSSISPSGQSTYYRREVKGRFTISRDNSKNTLYLQMNSLRAEDTAVYYCARRTGREYGGGWYFDYWGQGTLVTVSS VL2: DIQMTQSPSSLSASVGDRVTITCKASRNIERQLAWYQQKPGQAPELLIYQASRKESGVPDRFSGSRYGTDFTLTISSLQPEDIATYYCQQYSDPPLTFGGGTKVEIK | 85 | –
3 | concizumab (antibody, chains of the INN, looked up, V domains shown) VH: EVQLVESGGGLVKPGGSLRLSCAASGFTFSNYAMSWVRQTPEKRLEWVATISRSGSYSYFPDSVQGRFTISRDNAKNSLYLQMNSLRAEDTAVYYCARLGGYDEGDAMDSWGQGTTVTVSS VL: DIVMTQTPLSLSVTPGQPASISCKSSQSLLESDGKTYLNWYLQKPGQSPQLLIYLVSILDSGVPDRFSGSGSGTDFTLKISRVEAEDVGVYYCLQATHFPQTFGGGTKVEIK | – | 93.0
4 | evolocumab (antibody, chains of the INN, looked up, V domains shown) VH: EVQLVQSGAEVKKPGASVKVSCKASGYTLTSYGISWVRQAPGQGLEWMGWVSFYNGNTNYAQKLQGRGTMTTDPSTSTAYMELRSLRSDDTAVYYCARGYGMDVWGQGTTVTVSS VL: ESALTQPASVSGSPGQSITISCTGTSSDVGGYNSVSWYQQHPGKAPKLMIYEVSNRPSGVSNRFSGSKSGNTASLTISGLQAEDEADYYCNSYTSTSMVFGGGTKLTVL | 82 | –
